Assay results taken from patent US20240043534A1.

Target: Fab with CK (kappa) light chain constant domain
Test: ELISA

“wild type Protein G (wild-type non-modified protein G polypeptide)” gave a fold lower EC50 for CK than for Cλ of 7 fold.
